Reference: PMC4657913

Target: RHDV VPg fused to the VN155 (I152L) fragment for BiFC (Rabbit hemorrhagic disease virus (RHDV) strain CHA/JX/97)
Test: split reporter (BiFC, NanoBiT); BiFC in RK-13 cells, pVPg-VN and peIF4E-VC; green fluorescence quantified by flow cytometry 48 h after transfection

Work on “eIF4E fused to the VC155 fragment for BiFC (from UniProt P29338 1-217) (natural protein)” yielded a BiFC signal-to-noise (ratio between the treatment and control groups) greater than 3.
